Data reported in PMC9478924 (The Journal of Biological Chemistry, 2022).
Like-named read-outs stand apart in the source and are kept apart here.

T1: EVA-1 (UniProt P0C8E7 21-114, biotin on the Avi-tag (Bir-A ligase))
T1 sequence (looked up): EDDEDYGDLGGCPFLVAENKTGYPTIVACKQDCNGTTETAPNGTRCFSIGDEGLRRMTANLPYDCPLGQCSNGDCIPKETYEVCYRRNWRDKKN

T2: EVA-4 (UniProt P0C8E9 24-127, biotin on the Avi-tag (Bir-A ligase))
T2 sequence (looked up): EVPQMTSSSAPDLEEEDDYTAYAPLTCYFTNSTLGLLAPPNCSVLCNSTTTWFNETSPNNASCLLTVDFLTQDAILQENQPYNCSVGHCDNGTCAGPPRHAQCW

T3: EVA-P974 (UniProt A0A023FDY8 22-118, biotin on the Avi-tag (Bir-A ligase))
T3 sequence (looked up): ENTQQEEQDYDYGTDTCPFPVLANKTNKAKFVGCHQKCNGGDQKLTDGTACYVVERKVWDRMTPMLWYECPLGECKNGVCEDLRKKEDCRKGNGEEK

B1: CCL14 (ligand, human, UniProt Q16627 20-93, looked up)
chain: TKTESSSRGPYHPSECCFTYTTYKIPRQRIMDYYETNSQCSKPGIVFITKRGHSVCTNPSDKWVQDYIKDMKEN
B2: CCL15 (ligand, human, UniProt Q16663 22-113, looked up)
chain: QFTNDAETELMMSKLPLENPVVLNSFHFAADCCTSYISQSIPCSLMKSYFETSSECSKPGVIFLTKKGRQVCAKPSGPGVQDCMKKLKPYSI
B3: CCL4 (ligand, human, UniProt P13236 24-92, looked up)
chain: APMGSDPPTACCFSYTARKLPRNFVVDYYETSSLCSQPAVVFQTKRSKQVCADPSESWVQEYVYDLELN
B4: CCL16 (ligand, human, UniProt O15467 24-120, looked up)
chain: QPKVPEWVNTPSTCCLKYYEKVLPRRLVVGYRKALNCHLPAIIFVTKRNREVCTNPNDDWVQEYIKDPNLPLLPTRNLSTVKIITAKNGQPQLLNSQ
B5: CCL22 (ligand, human, UniProt O00626 25-93, looked up)
chain: GPYGANMEDSVCCRDYVRYRLPLRVVKHFYWTSDSCPRPGVVLLTFRDKEICADPRVPWVKMILNKLSQ
B6: CCL24 (ligand, human, UniProt O00175 27-119, looked up)
chain: VVIPSPCCMFFVSKRIPENRVVSYQLSSRSTCLKAGVIFTTKKGQQFCGDPKQEWVQRYMKNLDAKQKKASPRARAVAVKGPVQRYPGNQTTC
B7: CCL1 (ligand, human, UniProt P22362 24-96, looked up)
chain: KSMQVPFSRCCFSFAEQEIPLRAILCYRNTSSICSNEGLIFKLKRGKEACALDTVGWVQRHRKMLRHCPSKRK
B8: CCL11 (ligand)
chain: not shown
B9: CCL5 (ligand, human, UniProt P13501 24-91, looked up)
chain: SPYSSDTTPCCFAYIARPLPRAHIKEYFYTSGKCSNPAVVFVTRKNRQVCANPEKKWVREYINSLEMS
B10: CCL18 (ligand, human, UniProt P55774 21-89, looked up)
chain: AQVGTNKELCCLVYTSWQIPQKFIVDYSETSPQCPKPGVILLTKRGRQICADPNKKWVQKYISDLKLNA
B11: CCL3 (ligand, human, UniProt P10147 24-92, looked up)
chain: SLAADTPTACCFSYTSRQIPQNFIADYFETSSQCSKPGVIFLTKRSRQVCADPSEEWVQKYVSDLELSA
B12: CCL23 (ligand, human, UniProt P55773 22-120, looked up)
chain: RVTKDAETEFMMSKLPLENPVLLDRFHATSADCCISYTPRSIPCSLLESYFETNSECSKPGVIFLTKKGRRFCANPSDKQVQVCMRMLKLDTRIKTRKN
B13: CCL17 (ligand, human, UniProt Q92583 24-94, looked up)
chain: ARGTNVGRECCLEYFKGAIPLRKLKTWYQTSEDCSRDAIVFVTVQGRAICSDPNNKRVKNAVKYLQSLERS
B14: CCL7 (ligand)
chain: not shown
B15: CCL8 (ligand, human, UniProt P80075 24-99, looked up)
chain: QPDSVSIPITCCFNVINRKIPIQRLESYTRITNIQCPKEAVIFKTKRGKEVCADPKERWVRDSMKHLDQIFQNLKP
B16: CCL13 (ligand)
chain: not shown

How the values were obtained:
Assay in all cases: SPR
[1] = molecular target: T1, EVA-1
[2] = molecular target: T2, EVA-4
[3] = molecular target: T3, EVA-P974
[4] = molecular target: T3, EVA-P974; remark: listed apart in the source

| Binder | Kd [1] | Kd [2] | Kd [3] | Kd [4] |
| --- | --- | --- | --- | --- |
| B1 | 92 nM | 1.1 nM | 1.8 nM |  |
| B2 |  | 240 nM |  |  |
| B3 | 60.7 nM |  | 1.8 nM |  |
| B4 |  | 4.1 nM | 0.1 nM | < 0.1 nM |
| B5 |  | 8.5 nM | 1.8 nM |  |
| B6 |  | 55 nM |  |  |
| B7 |  | 376 nM | 15 nM |  |
| B8 |  | 20 nM | 0.3 nM |  |
| B9 |  | 6.1 nM |  |  |
| B10 | 192 nM | 0.4 nM | 0.6 nM |  |
| B11 | 0.21 nM | 0.2 nM | 0.6 nM |  |
| B12 |  | 7.4 nM |  |  |
| B13 |  | 283 nM | 23 nM |  |
| B14 |  | 0.8 nM | 4.4 nM |  |
| B15 |  | 0.4 nM | 0.03 nM | < 0.1 nM |
| B16 |  |  | 0.5 nM |  |
